Article PMC7367873, “Dissecting the sequence determinants for dephosphorylation by the catalytic subunits of phosphatases PP1 and PP2A” (Nature Communications, 2020)

Assays:
[1] = tested on: GFP-14-3-3β and its binding proteins; experiment: GFP-14-3-3β co-IP with LC-MS/MS label-free quantification, untreated versus PP1c-treated; set-up: species or system human; settings: PP1 vs untreated; label-free quantification
[2] = tested on: GFP-14-3-3β; experiment: GFP-14-3-3β co-IP with LC-MS/MS, untreated GFP-14-3-3β versus GFP control (14-3-3 interactome); type: binding, human; settings: untreated vs GFP; label-free quantification

Difference (log2), PP1 vs untreated [1] | Molecule | Difference (log2), untreated vs GFP [2]
1.03 log2 | SERBP1 (protein, UniProt Q8NC51 2-408, looked up) SERPINE1 mRNA-binding protein …: PGHLQEGFGCVVTNRFDQLFDDESDPFEVLKAAENKKKEAGGGGVGGPGAKSAAQAAAQTNSNAAGKQLRKESQKDRKNPLPPSVGVVDKKEETQPPVALKKEGIRRVGRRPDQQLQGEGKIIDRRPERRPPRERRFEKPLEEKGEGGEFSVDRPIIDRPIRGRGGLGRGRGGRGRGMGRGDGFDSRGKREFDRHSGSDRSSFSHYSGLKHEDKRGGSGSHNWGTVKDELTESPKYIQKQISYNYSDLDQSNVTEETPEGEEHHPVADTENKENEVEEVKEEGPKEMTLDEWKAIQNKDRAKVEFNIRKPNEGADGQWKKGFVLHKSKSEEAHAEDSVMDHHFRKPANDITSQLEINFGDLGRPGRGGRGGRGGRGRGGRPNRGSRTDKSSASAPDVDDPEAFPALA | -0.2637 log2
1.071 log2 | TMEM43 (protein, UniProt Q9BTV4 2-400, looked up) Transmembrane protein 43: AANYSSTSTRREHVKVKTSSQPGFLERLSETSGGMFVGLMAFLLSFYLIFTNEGRALKTATSLAEGLSLVVSPDSIHSVAPENEGRLVHIIGALRTSKLLSDPNYGVHLPAVKLRRHVEMYQWVETEESREYTEDGQVKKETRYSYNTEWRSEIINSKNFDREIGHKNPSAMAVESFMATAPFVQIGRFFLSSGLIDKVDNFKSLSLSKLEDPHVDIIRRGDFFYHSENPKYPEVGDLRVSFSYAGLSGDDPDLGPAHVVTVIARQRGDQLVPFSTKSGDTLLLLHHGDFSAEEVFHRELRSNSMKTWGLRAAGWMAMFMGLNLMTRILYTLVDWFPVFRDLVNIGLKAFAFCVATSLTLLTVAAGWLFYRPLWALLIAGLALVPILVARTRVPAKKLE | -0.2983 log2
1.045 log2 | YTHDF2 (protein, UniProt Q9Y5A9 2-579, looked up) YTH domain-containing family …: SASSLLEQRPKGQGNKVQNGSVHQKDGLNDDDFEPYLSPQARPNNAYTAMSDSYLPSYYSPSIGFSYSLGEAAWSTGGDTAMPYLTSYGQLSNGEPHFLPDAMFGQPGALGSTPFLGQHGFNFFPSGIDFSAWGNNSSQGQSTQSSGYSSNYAYAPSSLGGAMIDGQSAFANETLNKAPGMNTIDQGMAALKLGSTEVASNVPKVVGSAVGSGSITSNIVASNSLPPATIAPPKPASWADIASKPAKQQPKLKTKNGIAGSSLPPPPIKHNMDIGTWDNKGPVAKAPSQALVQNIGQPTQGSPQPVGQQANNSPPVAQASVGQQTQPLPPPPPQPAQLSVQQQAAQPTRWVAPRNRGSGFGHNGVDGNGVGQSQAGSGSTPSEPHPVLEKLRSINNYNPKDFDWNLKHGRVFIIKSYSEDDIHRSIKYNIWCSTEHGNKRLDAAYRSMNGKGPVYLLFSVNGSGHFCGVAEMKSAVDYNTCAGVWSQDKWKGRFDVRWIFVKDVPNSQLRHIRLENNENKPVTNSRDTQEVPLEKAKQVLKIIASYKHTTSIFDDFSHYEKRQEEEESVKKERQGRGK | 1.029 log2
1.065 log2 | CGN (protein, UniProt Q9P2M7 1-1203, looked up) Cingulin: MEQAPNMAEPRGPVDHGVQIRFITEPVSGAEMGTLRRGGRRPAKDARASTYGVAVRVQGIAGQPFVVLNSGEKGGDSFGVQIKGANDQGASGALSSDLELPENPYSQVKGFPAPSQSSTSDEEPGAYWNGKLLRSHSQASLAGPGPVDPSNRSNSMLELAPKVASPGSTIDTAPLSSVDSLINKFDSQLGGQARGRTGRRTRMLPPEQRKRSKSLDSRLPRDTFEERERQSTNHWTSSTKYDNHVGTSKQPAQSQNLSPLSGFSRSRQTQDWVLQSFEEPRRSAQDPTMLQFKSTPDLLRDQQEAAPPGSVDHMKATIYGILREGSSESETSVRRKVSLVLEKMQPLVMVSSGSTKAVAGQGELTRKVEELQRKLDEEVKKRQKLEPSQVGLERQLEEKTEECSRLQELLERRKGEAQQSNKELQNMKRLLDQGEDLRHGLETQVMELQNKLKHVQGPEPAKEVLLKDLLETRELLEEVLEGKQRVEEQLRLRERELTALKGALKEEVASRDQEVEHVRQQYQRDTEQLRRSMQDATQDHAVLEAERQKMSALVRGLQRELEETSEETGHWQSMFQKNKEDLRATKQELLQLRMEKEEMEEELGEKIEVLQRELEQARASAGDTRQVEVLKKELLRTQEELKELQAERQSQEVAGRHRDRELEKQLAVLRVEADRGRELEEQNLQLQKTLQQLRQDCEEASKAKMVAEAEATVLGQRRAAVETTLRETQEENDEFRRRILGLEQQLKETRGLVDGGEAVEARLRDKLQRLEAEKQQLEEALNASQEEEGSLAAAKRALEARLEEAQRGLARLGQEQQTLNRALEEEGKQREVLRRGKAELEEQKRLLDRTVDRLNKELEKIGEDSKQALQQLQAQLEDYKEKARREVADAQRQAKDWASEAEKTSGGLSRLQDEIQRLRQALQASQAERDTARLDKELLAQRLQGLEQEAENKKRSQDDRARQLKGLEEKVSRLETELDEEKNTVELLTDRVNRGRDQVDQLRTELMQERSARQDLECDKISLERQNKDLKTRLASSEGFQKPSASLSQLESQNQLLQERLQAEEREKTVLQSTNRKLERKVKELSIQIEDERQHVNDQKDQLSLRVKALKRQVDEAEEEIERLDGLRKKAQREVEEQHEVNEQLQARIKSLEKDSWRKASRSAAESALKNEGLSSDEEFDSVYDPSSIASLLTESNLQTSSC | 1.896 log2
1.065 log2 | DARS (protein, UniProt P14868 1-501, looked up) Aspartate--tRNA ligase, …: MPSASASRKSQEKPREIMDAAEDYAKERYGISSMIQSQEKPDRVLVRVRDLTIQKADEVVWVRARVHTSRAKGKQCFLVLRQQQFNVQALVAVGDHASKQMVKFAANINKESIVDVEGVVRKVNQKIGSCTQQDVELHVQKIYVISLAEPRLPLQLDDAVRPEAEGEEEGRATVNQDTRLDNRVIDLRTSTSQAVFRLQSGICHLFRETLINKGFVEIQTPKIISAASEGGANVFTVSYFKNNAYLAQSPQLYKQMCICADFEKVFSIGPVFRAEDSNTHRHLTEFVGLDIEMAFNYHYHEVMEEIADTMVQIFKGLQERFQTEIQTVNKQFPCEPFKFLEPTLRLEYCEALAMLREAGVEMGDEDDLSTPNEKLLGHLVKEKYDTDFYILDKYPLAVRPFYTMPDPRNPKQSNSYDMFMRGEEILSGAQRIHDPQLLTERALHHGIDLEKIKAYIDSFRFGAPPHAGGGIGLERVTMLFLGLHNVRQTSMFPRDPKRLTP | -1.63 log2
1.068 log2 | BANF1 (protein, UniProt O75531 1-89, looked up) Barrier-to-autointegration …: MTTSQKHRDFVAEPMGEKPVGSLAGIGEVLGKKLEERGFDKAYVVLGQFLVLKKDEDLFREWLKDTCGANAKQSRDCFGCLREWCDAFL | -2.499 log2
